# How the values were obtained:
# [1] = molecular target: human BDNF (Sino Biological Inc., Catalog 50240-MNAS) (Homo sapiens, UniProt P23560); experiment: SPR
# [2] = molecular target: human BDNF (KinExA; supplier not stated) (Homo sapiens, UniProt P23560); experiment: kinetic exclusion assay
# human BDNF (KinExA; supplier not stated), sequence (P23560 129-247): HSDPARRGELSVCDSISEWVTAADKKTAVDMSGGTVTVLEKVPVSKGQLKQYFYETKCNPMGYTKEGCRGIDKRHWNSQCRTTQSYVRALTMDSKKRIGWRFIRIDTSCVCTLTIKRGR
# human BDNF (Sino Biological Inc., Catalog 50240-MNAS), sequence (P23560 129-247): as above
Kd [1],Kd [2],Binder
120 ± 10 pM,,"B30, humanized and affinity-optimized anti-BDNF IgG1 (antibody, V domains shown) VH: not shown VL: SSELTQPPAVSVALGQTVRITCSGAGSGYGYGWYQQKPGQAPVTVIYSNDKRPSGIPDRFSGSSSGNTASLTITGAQAEDEADYYCGTYVSAYYGYAIFGGGTKLTVL"
,1.06 pM,"B30 Fab (Fab, V domains shown) VH: not shown VL: SSELTQPPAVSVALGQTVRITCSGAGSGYGYGWYQQKPGQAPVTVIYSNDKRPSGIPDRFSGSSSGNTASLTITGAQAEDEADYYCGTYVSAYYGYAIFGGGTKLTVL"
34400 ± 5430 pM,,"R3bH01, parental chimeric chicken-human IgG1 anti-BDNF antibody (antibody, V domains shown) VH: AVTLDESGGGLQTPGGGLSLVCKASGFDFSSYDMHWVRQAPGKGLEWVAGIDDGGSDTYYGSAVKGRATISRDNGQSTVRLQLNNLRAEDTGTYYCAKSSYDISWNGHVENIDAWGHGTEVIVSS VL: ALTQPTSVSTNLGGTVEITCSGAGSGYGYGWFQQKSPGSAPVTVIYSNDKRPSDIPSRFSGSKSGSTGTLTITGVQAEDEAVYFCGTYDSTDAGYAIFGAGTTLTVL"

# From PMC7188400 (mAbs, 2020)
